As usually defined, the Kd is the equilibrium constant for the complex coming apart. What is called koff is the rate constant with which the complex falls apart. One may read the kon as a measure of how fast the partners come together.

Assay [1] concerns the target T1, Recombinant human IL-6 (human, UniProt P05231 29-212).
T1 construct: Bought protein; also called human recombinant IL-6; hIL-6
Put plainly: BIAcore 3000; mean of the two determinations of Table 1.1. On the procedure:
(§1) BIA (Biamolecular Interaction Analysis) was performed using a BIAcore 3000 (BIAcore AB). Affinipure F(ab′)₂ Fragment goat anti-human IgG, Fc fragment specific (Jackson ImmunoResearch) was immobilised on a CM5 Sensor Chip via amine coupling chemistry to a capture level of ≈5000 response units (RUs). HBS-EP buffer (10 mM HEPES pH 7.4, 0.15 M NaCl, 3 mM EDTA, 0.005% Surfactant P20, BIAcore AB) was used as the running buffer with a flow rate of 10 μl/min. A 10 μl injection of CA030₋240.g1 at 4 μg/mL was used for capture by the immobilised anti-human IgG-Fc. Human IL-6 was titrated over the captured CAO30₋240.g1 at various concentrations at a flow rate of 30 μL/min. The surface was regenerated by a 10 μL injection of 40 mM HCl, followed by a 5 μL injection of 5 mM NaOH at a flowrate of 10 μL/min.
(§2) Background subtraction binding curves were analysed using the BIAevaluation software (version 3.2) following standard procedures. Kinetic parameters were determined from the fitting algorithm.
One batch of CA030₋240.g1 was used in this study.
(In SPR one partner is held on a chip, and binding of the other changes the refractive index at the surface.)

Assay [2] concerns the target T2, Recombinant cynomologous monkey IL-6 (cynomolgus monkey, UniProt P79341 28-212, limits assumed).
T2 sequence (looked up): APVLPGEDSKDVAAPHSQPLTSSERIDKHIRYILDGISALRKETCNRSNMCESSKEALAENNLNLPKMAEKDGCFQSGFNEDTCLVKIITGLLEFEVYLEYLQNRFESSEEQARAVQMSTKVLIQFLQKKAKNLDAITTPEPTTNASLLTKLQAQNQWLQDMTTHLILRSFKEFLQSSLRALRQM
The experiment in a line: cell-based or functional assay.

Assay [3] concerns the target Human mammalian-derived IL-6 (human, UniProt P05231 30-212). The experiment in a line: cell-based or functional assay.
The target of assay [4] is T1, Recombinant human IL-6. Put plainly: cell-based or functional assay.
Assay [5] addresses T3, Recombinant Rhesus monkey IL-6 (rhesus monkey, UniProt P51494 28-212, limits assumed).
T3 sequence (looked up): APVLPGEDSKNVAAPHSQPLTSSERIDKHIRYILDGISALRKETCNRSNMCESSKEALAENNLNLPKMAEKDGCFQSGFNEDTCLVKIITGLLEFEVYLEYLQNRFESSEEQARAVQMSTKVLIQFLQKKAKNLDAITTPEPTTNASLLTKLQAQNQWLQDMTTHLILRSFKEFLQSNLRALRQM
Put plainly: cell-based or functional assay.

Assay [6] deals with T1, Recombinant human IL-6. Put plainly: BIAcore 3000; IgG4 captured by anti-human Fc F(ab')2, human IL-6 as analyte. On the procedure:
as §1, §2

“And” between values parts separate entries of the source, which are not always exact repeats. Equal values may be shown once.

B1: CA030-00240.g1 whole IgG4 (antibody, V domains shown)
VH: EVQLVESGGGLVQPGGSLRLSCAASGFNFNDYFMNWVRQAPGKGLEWVAQMRNKNYQYGTYYAESLEGRFTISRDDSKNSLYLQMNSLKTEDTAVYYCARESYYGFTSYWGQGTLVTVSS
VL: DIQMTQSPSSLSASVGDRVTITCQASQDIGISLSWYQQKPGKAPKLLIYNANNLADGVPSRFSGSGSGTDFTLTISSLQPEDFATYYCLQHNSAPYTFGQGTKLEIKR
notes: Made in CHO cells; also called CA030-240.g1; CA030_240.g1
As to B1, the Kd was 9.76 pM in assay [1]; 10.5 pM and 9.02 pM in assay [6]. Also, the “ND50, inhibition of IL-6 induced proliferation of T1165 cells” value in assay [2] is 5.4 ng/ml and 35.6 pM; in assay [3] it was 3.6 ng/ml and 23.8 pM; in assay [4] it was 1.1 ng/ml and 7.26 pM; in assay [5], 2.2 ng/ml and 14.5 pM. In addition, the koff in assay [6] worked out at 7.68e-06 s⁻¹. Moreover, the on-rate constant (kon) in assay [6] was 731000 M⁻¹ s⁻¹ and 852000 M⁻¹ s⁻¹.

The values above are taken from patent US20070154481A1 (UCB, published 2007).
